# Test results taken from US9018171B2, “Uses of an immunomodulatory protein (GMI) from Ganoderma microsporum” (Mycomagic Biotechnology Co., Ltd., priority 2010, dated 2015).
# Entries after “also recorded” stand apart in the source; their conditions may differ.
# B1: GMI: immunomodulatory protein from Ganoderma microsporum, amino acid sequence SEQ ID NO: 3, manufactured by Mycomagic Biotechnology Co., Ltd. (protein, listed as Ganoderma microsporum)
# chain: MSDTALIFTLAWNVKQLAFDYTPNWGRGRPSSFIDTVTFPTVLTDKAYTYRVVVSGKDLGVRPSYAVESDGSQKINFLEYNSGYGIADTNTIQVYVIDPDTGNNFIVAQWN
# Legend:
# SNB-75 = experiment: NCI60 in vitro screening, CNS Cancer; format: cell-based
# M14 = experiment: NCI60 in vitro screening, Melanoma; format: cell-based
# A549 cells = experiment: Cell invasion assay (modified Boyden chamber, Matrigel); format: cell-based, human
# Protocol: A549 cells (2×10^4 cells/well) were seeded onto the upper chamber of membrane and treated with different concentrations of GMI (4, 8, 16 μg/ml) for 2 hours. The bottom chamber was filled with DMEM supplemented with EGF 10 ng/ml or 100 ng/ml. After about 24 h, the invasive A549 cells passed through the membrane and were quantified by counting the cells that migrated onto the membrane. Cells were fixed, stained, and counted as described in the text. The data represent mean±SD.
# Cell invasion assays were performed using modified Boyden chambers 6.5 mm in diameter, with […] porous (8 μm) polycarbonate membrane separating the two chambers (Transwell; Costar, Cambridge, Mass.). The membrane of the upper chamber was coated with Matrigel (0.3 mg/mL; BD Biosciences Discovery Labware) for 3 hours. Condition medium was prepared from A549 cells which were pretreated with or without GMI, LY294002 (50 μM), or AG1478 (2 μM) for 8 h. To the medium of the bottom chamber was added 10% FBS-DMEM containing EGF (10 ng/ml) or condition medium. Cells were trypsinized, centrifuged, and resuspended at 4×10^5 cells/mL in 0.5% FBS-DMEM. After 24 h incubation, the cells on the upper well and the membranes coated with Matrigel were fixed with methanol, and stained with 20% Giemsa solution (Merck). The cells that were attached to the lower surface of the polycarbonate filter were counted under a light microscope (magnification, X 100). The experiments were performed in triplicate.
# PC-3 = experiment: NCI60 in vitro screening, Prostate Cancer; format: cell-based
# OVCAR-8 = experiment: NCI60 in vitro screening, Ovarian Cancer; format: cell-based
# NCI60 tumour cell lines = experiment: NCI60 in vitro screening, one dose, whole panel; format: cell-based; settings: mean over all cell lines
# MDA-MB-468 = experiment: NCI60 in vitro screening, Breast Cancer; format: cell-based
# MOLT-4 = experiment: NCI60 in vitro screening, Leukemia; format: cell-based
molecule,measurement,setting,value
B1,TGI,SNB-75; SNB-75,1.45E1
same,Percent Growth,"SNB-75; SNB-75, Log10 Concentration 0.1",97%
same,Percent Growth,"SNB-75; SNB-75, Log10 Concentration 1.1",5%
same,Percent Growth,"SNB-75; SNB-75, Log10 Concentration 2.1",−68%
same,Percent Growth,"SNB-75; SNB-75, Log10 Concentration −0.9",101%
same,Percent Growth,"SNB-75; SNB-75, Log10 Concentration −1.9",95%
same,Growth Percent,"SNB-75; SNB-75, one dose",−45.73%
same,GI50,"SNB-75; SNB-75, in µg/mL",4.04E0
same,LC50,"SNB-75; SNB-75, in µg/mL",7.14E1
same,TGI,M14; M14,>1.25E2
same,Percent Growth,"M14; M14, Log10 Concentration 0.1",106%
same,Percent Growth,"M14; M14, Log10 Concentration 1.1",76%
same,Percent Growth,"M14; M14, Log10 Concentration 2.1",1%
same,Percent Growth,"M14; M14, Log10 Concentration −0.9",96%
same,Percent Growth,"M14; M14, Log10 Concentration −1.9",98%
same,Growth Percent,"M14; M14, one dose",94.87%
same,GI50,"M14; M14, in µg/mL",2.78E1
same,EGF-promoted invasion reduced to,"A549 cells; GMI 4 μg/ml, EGF",52%
same,invaded cell number,"A549 cells; GMI 4 μg/ml, EGF, decreased from 2515±212",1306±30
same,invasion reduced to,"A549 cells; GMI 4 μg/ml, without EGF",22%
same,invaded cell number,"A549 cells; GMI 4 μg/ml, without EGF, decreased from 1895±37",419±6
same,EGF-promoted invasion reduced to,"A549 cells; GMI 16 μg/ml, EGF",less than 5%
same,invaded cell number,"A549 cells; GMI 16 μg/ml, EGF, decreased from 2515±212",121±39
same,invasion reduced to,"A549 cells; GMI 16 μg/ml, without EGF",less than 9%
same,invaded cell number,"A549 cells; GMI 16 μg/ml, without EGF, decreased from 1895±37",61±3
same,EGF-promoted invasion of A549 cells,"A549 cells; increasing concentrations of GMI, EGF",significantly inhibits; also recorded: dose-dependent decrease in EGF-promoted invasion
same,invasion of A549 cells,"A549 cells; increasing concentrations of GMI, without EGF",dose-dependent decrease in invasion
same,TGI,PC-3; PC-3,3.87E1
same,Percent Growth,"PC-3; PC-3, Log10 Concentration 0.1",98%
same,Percent Growth,"PC-3; PC-3, Log10 Concentration 1.1",73%
same,Percent Growth,"PC-3; PC-3, Log10 Concentration 2.1",−76%
same,Percent Growth,"PC-3; PC-3, Log10 Concentration −0.9",102%
same,Percent Growth,"PC-3; PC-3, Log10 Concentration −1.9",104%
same,Growth Percent,"PC-3; PC-3, one dose",79.73%
same,GI50,"PC-3; PC-3, in µg/mL",1.79E1
same,LC50,"PC-3; PC-3, in µg/mL",8.34E1
same,TGI,OVCAR-8; OVCAR-8,>1.25E2
same,Percent Growth,"OVCAR-8; OVCAR-8, Log10 Concentration 0.1",99%
same,Percent Growth,"OVCAR-8; OVCAR-8, Log10 Concentration 1.1",91%
same,Percent Growth,"OVCAR-8; OVCAR-8, Log10 Concentration 2.1",31%
same,Percent Growth,"OVCAR-8; OVCAR-8, Log10 Concentration −0.9",95%
same,Percent Growth,"OVCAR-8; OVCAR-8, Log10 Concentration −1.9",98%
same,Growth Percent,"OVCAR-8; OVCAR-8, one dose",76.68%
same,GI50,"OVCAR-8; OVCAR-8, in µg/mL",6.00E1
same,"Growth Percent, Mean",NCI60 tumour cell lines,64.66%
same,TGI,MDA-MB-468; MDA-MB-468,1.18E1
same,Percent Growth,"MDA-MB-468; MDA-MB-468, Log10 Concentration 0.1",115%
same,Percent Growth,"MDA-MB-468; MDA-MB-468, Log10 Concentration 1.1",−3%
same,Percent Growth,"MDA-MB-468; MDA-MB-468, Log10 Concentration 2.1",−24%
same,Percent Growth,"MDA-MB-468; MDA-MB-468, Log10 Concentration −0.9",100%
same,Percent Growth,"MDA-MB-468; MDA-MB-468, Log10 Concentration −1.9",104%
same,Growth Percent,"MDA-MB-468; MDA-MB-468, one dose",50.90%
same,GI50,"MDA-MB-468; MDA-MB-468, in µg/mL",4.45E0
same,TGI,MOLT-4; MOLT-4,>1.25E2
same,Percent Growth,"MOLT-4; MOLT-4, Log10 Concentration 0.1",103%
same,Percent Growth,"MOLT-4; MOLT-4, Log10 Concentration 1.1",62%
same,Percent Growth,"MOLT-4; MOLT-4, Log10 Concentration 2.1",1%
same,Percent Growth,"MOLT-4; MOLT-4, Log10 Concentration −0.9",97%
same,Percent Growth,"MOLT-4; MOLT-4, Log10 Concentration −1.9",95%
same,Growth Percent,"MOLT-4; MOLT-4, one dose",44.75%
same,GI50,"MOLT-4; MOLT-4, in µg/mL",1.99E1
